Data on 1 molecule can be found in patent US20230028090, “Method Of Using Aptamer For Detecting Glycated Hemoglobin In Whole Blood And Nanoelectronic Aptasensor” (National Taiwan University, published 2023).

The target in the data set is Glycated hemoglobin HbA1c (Homo sapiens, UniProt P69905;P68871 P69905:2-142,P68871:2-147). The data set can be described thus: detection range by PEG:AptGP silicon nanowire FET in 1x PBS; hemolytic blood also detected, serum control response <10%. The settings on record: also hemolytic whole blood samples; chain copies: 2. The procedure: Prior to the surface modification, an SiNW-FET was washed with ethanol and cleaned with oxygen plasma (25 W, 50 sccm, 60 s). The SiNW-FET device was then incubated for 15 min in an ethanol solution (1% v/v) containing an optimal ratio of MPTMS, PTMS, and PEG-silane, of which the ethanol solution was also mixed with 16.7 mM DTT to reduce the possible disulfide linkages among the thiol groups of MPTMS. Next, this silane-based SAM-modified device was rinsed with ethanol, dried under N₂, and heated at 100° C. for 15 min. Finally, the silane-based SAM-modified device was incubated in 1×PBS containing 1 μM AptGP and 16.7 mM DTT for 1 hr, where AptGP (with the 5′-SH) was immobilized to MPTMS via a disulfide bond to form a PEG:AptGP/SiNW-FET aptasensor.
Chain of Glycated hemoglobin HbA1c (P69905 2-142, chain 1 of 2): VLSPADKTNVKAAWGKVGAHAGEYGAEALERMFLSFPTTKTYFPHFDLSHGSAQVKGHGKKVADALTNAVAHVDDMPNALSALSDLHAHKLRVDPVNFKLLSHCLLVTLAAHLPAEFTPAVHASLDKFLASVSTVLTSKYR
Chain of Glycated hemoglobin HbA1c (P68871 2-147, chain 2 of 2): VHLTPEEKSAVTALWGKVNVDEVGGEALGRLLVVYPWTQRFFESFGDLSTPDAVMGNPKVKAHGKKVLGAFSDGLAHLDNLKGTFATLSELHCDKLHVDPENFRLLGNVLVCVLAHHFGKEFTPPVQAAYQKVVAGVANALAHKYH
We show a representative example of measuring HbA1c in the blood sample of Subject 1 by PEG:AptGP/SiNW-FET. Before detecting HbA1c in a lysed-blood sample, a PEG:AptGP/SiNW-FET aptasensor was calibrated by recording the transfer curves corresponding to various concentrations of HbA1c (CHbA1c=0-1.2 μM in 1×PBS), as shown in FIG. 14. […] By comparison, we also detected HbA1c in serum as a control test (with the transfer curves measured in the lower panel of FIG. 16 and the corresponding electrical responses presented in FIG. 17), where the serum was isolated from the tested blood sample by centrifugation.

B1: AptGP (Aptamer A) (ssDNA)
DNA: GGTGAGTTAAGGAATCAGCGGCTCAGACGACCCGACGCAC
modifications: end-modified for disulfide conjugation to MPTMS on silicon nanowire
In the case of B1, the binding result is “binds”.
